Measurements from IntAct's records for PubMed 20600852.

B1: Inhibitor of nuclear factor kappa-B kinase subunit beta (Homo sapiens), O14920 (parent)
chain: MSWSPSLTTQTCGAWEMKERLGTGGFGNVIRWHNQETGEQIAIKQCRQELSPRNRERWCLEIQIMRRLTHPNVVAARDVPEGMQNLAPNDLPLLAMEYCQGGDLRKYLNQFENCCGLREGAILTLLSDIASALRYLHENRIIHRDLKPENIVLQQGEQRLIHKIIDLGYAKELDQGSLCTSFVGTLQYLAPELLEQQKYTVTVDYWSFGTLAFECITGFRPFLPNWQPVQWHSKVRQKSEVDIVVSEDLNGTVKFSSSLPYPNNLNSVLAERLEKWLQLMLMWHPRQRGTDPTYGPNGCFKALDDILNLKLVHILNMVTGTIHTYPVTEDESLQSLKARIQQDTGIPEEDQELLQEAGLALIPDKPATQCISDGKLNEGHTLDMDLVFLFDNSKITYETQISPRPQPESVSCILQEPKRNLAFFQLRKVWGQVWHSIQTLKEDCNRLQQGQRAAMMNLLRNNSCLSKMKNSMASMSQQLKAKLDFFKTSIQIDLEKYSEQTEFGITSDKLLLAWREMEQAVELCGRENEVKLLVERMMALQTDIVDLQRSPMGRKQGGTLDDLEEQARELYRRLREKPRDQRTEGDSQEMVRLLLQAIQSFEKKVRVIYTQLSKTVVCKQKALELLPKVEEVVSLMNEDEKTVVRLQEKRQKELWNLLKIACSKVRGPVSGSPDSMNASRLSQPGQLMSQPSTASNSLPEPAKKSEELVAEAHNLCTLLENAIQDTVREQDQSFTALDWSWLQTEEEEHSCLEQAS

Variants of: B1
Details: with keap1_human KEAP1, Q14145
Sequence of keap1_human KEAP1, Q14145 (Q14145 whole entry): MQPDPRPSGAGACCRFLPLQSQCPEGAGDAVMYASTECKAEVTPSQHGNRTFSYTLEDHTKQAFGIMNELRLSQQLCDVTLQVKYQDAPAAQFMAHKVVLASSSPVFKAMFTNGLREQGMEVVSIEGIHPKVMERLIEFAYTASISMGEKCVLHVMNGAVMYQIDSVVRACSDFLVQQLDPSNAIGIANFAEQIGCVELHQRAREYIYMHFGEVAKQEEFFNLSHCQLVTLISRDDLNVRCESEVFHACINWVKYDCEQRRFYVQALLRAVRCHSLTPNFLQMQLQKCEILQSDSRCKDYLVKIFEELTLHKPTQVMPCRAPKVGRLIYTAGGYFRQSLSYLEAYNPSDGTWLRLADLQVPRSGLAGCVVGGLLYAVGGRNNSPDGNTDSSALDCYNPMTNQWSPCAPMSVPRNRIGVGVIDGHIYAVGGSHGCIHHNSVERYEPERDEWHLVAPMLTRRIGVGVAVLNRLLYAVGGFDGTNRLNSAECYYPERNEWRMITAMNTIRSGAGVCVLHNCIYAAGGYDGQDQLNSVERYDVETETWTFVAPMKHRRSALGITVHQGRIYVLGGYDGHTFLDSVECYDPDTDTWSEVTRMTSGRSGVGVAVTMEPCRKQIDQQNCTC

Row | effect of a mutation on the interaction | Variant
1 | decreasing interaction | E39G
